Reference: patent publication US20070166779

Legend:
[1] = test system: SLPI present in human saliva
SLPI present in human saliva, sequence (chain, as listed by the source): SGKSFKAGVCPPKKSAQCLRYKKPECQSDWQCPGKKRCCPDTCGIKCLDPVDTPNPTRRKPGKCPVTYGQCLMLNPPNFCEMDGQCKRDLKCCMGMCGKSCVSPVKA

tryptase, sequence (chain, as listed by the source): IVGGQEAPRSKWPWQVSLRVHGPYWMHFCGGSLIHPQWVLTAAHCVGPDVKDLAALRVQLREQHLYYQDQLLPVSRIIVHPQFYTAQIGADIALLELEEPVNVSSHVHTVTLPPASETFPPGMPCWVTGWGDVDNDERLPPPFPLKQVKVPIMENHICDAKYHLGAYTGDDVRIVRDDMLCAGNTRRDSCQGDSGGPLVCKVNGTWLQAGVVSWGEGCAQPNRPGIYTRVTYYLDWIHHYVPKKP

tryptase
cleavage of SLPI in human saliva, Western analysis [1]: The larger SLPI cleavage product was not observed when the saliva samples were incubated with cathepsin G, tryptase and proteinase 3 | cleavage of rSLPI, LC/MS (1 ug rSLPI, 50 ng protease, 5 hours) (recombinant human SLPI): did not result in the formation of the second peak | cleavage of the reduced form of rSLPI (recombinant human SLPI): Reduction of the rSLPI samples in the presence of the proteases did result in cleavage of the SLPI protein
